The source of these data is US20220040232A1.

Assay [1] concerns the target cell surface receptors for M1 peptide (TCR Vβ17) on expanded Vβ17+CD8+ T cells. Kind of assay: flow cytometry, staining with M1 peptide loaded MHC class I tetramer and anti-human Vβ17 mAb; enriched Vβ17+CD8+ T cells from day 12 PBMCs stimulated with M1 peptide and IL-2.
Assay [2] has the same target. Kind of assay: tetramer staining, flow cytometry on enriched Vβ17+CD8+ T cells expanded with M1 peptide and IL-2. (A flow cytometer gives signals particle by particle.)
For assay [3] the target is unchanged. Kind of assay: flow cytometry, […] (91.6) […].

In assay [1], “Influenza A derived Matrix protein (M1) peptide loaded MHC class I tetramer (MBL, Catalog No. TS-0012-2C) (peptide-MHC)” yielded a % M1 Tet-negative Vβ17+ cells among enriched Vβ17+CD8+ T cells of 11.9% and a % M1 Tet-positive Vβ17+ cells among enriched Vβ17+CD8+ T cells of 86.8%. In addition, the percent of expanded Vβ17+CD8+ T cells positive for the tetramer in assay [2] came out at 86%. For the same substance, in assay [3], the % M1 Tet-negative Vβ17+ cells among gated Vβ17+CD8+ T cells turned out to be 11.9% and the % M1 Tet-positive Vβ17+ cells among gated Vβ17+CD8+ T cells was 86.8%.
